Laboratory results from patent US20260166128A1, “HUMAN AMYLIN ANALOG, AND DERIVATIVE THEREOF AND USE THEREOF” (priority 2022, published 2026).
Numbered stars: 1 amine (or outer) side, 2 acyl side, 3 side chain; on linkers, the order of the positions; unused ones are H or OH. Bridge positions count the residues as written; N and C are the ends. Square brackets hold non-standard residues; d marks the D form. Side chains are listed from the residue outwards. Peptide text beside a SMILES is read from it. * marks the point of attachment. C20 diacid = O=C(O)CCCCCCCCCCCCCCCCCCC(=O)*; C18 diacid = O=C(O)CCCCCCCCCCCCCCCCC(=O)*; C16 diacid = O=C(O)CCCCCCCCCCCCCCC(=O)*; γGlu = O=C(O)[C@H](CCC(=O)[*:2])N[*:1]; C14 diacid = O=C(O)CCCCCCCCCCCCC(=O)*; C12 diacid = O=C(O)CCCCCCCCCCC(=O)*; HOOC(CH2)8CO = O=C(O)CCCCCCCCC(=O)*; Hyp = O=C(O)[C@@H]1C[C@@H](O)CN1

Experiments:
human amylin receptor = molecular target: T1, human amylin receptor (Homo sapiens, UniProt O60896+P30988); test: Luciferase assay of amylin derivatives in amylin receptor/CRE-luc CHO cell line; assay type: cell-based; settings: CHO-K1/Ga15/AMY3 CRE-luc cells, 24 hours incubation, F12 medium containing 10% FBS; read-out: EC50
T1 construct: host or cells: CHO-K1/Ga15/AMY3 cells, further stably transfected with a CRE-luciferase plasmid
T1 sequence (P30988 25-474): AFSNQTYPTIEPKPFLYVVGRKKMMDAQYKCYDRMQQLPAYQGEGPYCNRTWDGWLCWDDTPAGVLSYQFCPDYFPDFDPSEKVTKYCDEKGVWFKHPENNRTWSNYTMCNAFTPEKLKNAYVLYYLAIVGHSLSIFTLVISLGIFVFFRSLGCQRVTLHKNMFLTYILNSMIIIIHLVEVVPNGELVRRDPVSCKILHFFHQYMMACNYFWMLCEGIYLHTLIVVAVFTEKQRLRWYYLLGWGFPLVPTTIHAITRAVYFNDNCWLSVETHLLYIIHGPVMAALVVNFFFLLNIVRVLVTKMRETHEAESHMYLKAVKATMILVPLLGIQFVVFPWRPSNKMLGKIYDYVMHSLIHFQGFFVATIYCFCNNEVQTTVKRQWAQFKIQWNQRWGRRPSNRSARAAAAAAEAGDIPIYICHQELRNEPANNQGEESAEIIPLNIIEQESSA
T1 sequence (O60896 24-148 partner): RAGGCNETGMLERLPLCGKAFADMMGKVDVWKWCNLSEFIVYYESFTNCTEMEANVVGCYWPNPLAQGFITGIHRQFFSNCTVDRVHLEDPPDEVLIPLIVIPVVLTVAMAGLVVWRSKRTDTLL
Experimental: The experiment was intended to detect the activity or efficacy of the amylin derivatives on a human amylin receptor in vitro by luciferase assay.
50 μL of growth medium (F12 medium containing 10% FBS) was added into each well of a white 96-well plate, and the stably transfected amylin/CRE-lue CHO cells were inoculated into the white 96-well plate at a density of about 20,000 cells/well for activity determination.

[1] = Freeze-thaw stability of derivatives (freeze-thaw yield by liquid chromatography); assay type: physicochemical; settings: for Dissolution property: appearance after dissolution at 0.2 mg/ml in 20 mM phosphate buffer solution (PB) (pH 7.0); for Freeze storage property: appearance after overnight storage at −20° C. and thawing to room temperature, 0.2 mg/ml in 20 mM PB (pH 7.0); for Freeze storage yield: concentration of polypeptide after freezing and thawing / concentration before, by liquid chromatography, −20° C. overnight
Experimental: The freeze-dried powder of the polypeptide analog derivative prepared in Example 1 was mixed with a buffer solution according to a mass-volume ratio of 0.2 mg/ml, the polypeptide was dissolved with 20 mM phosphate buffer solution (PB) (pH 7.0), the sample was stored at −20° C. for overnight storage, and then the sample was taken out to be restored to room temperature for thawing. During the experiment, property changes of the polypeptide after dissolution and freezing and thawing were observed and recorded respectively, and concentrations of the polypeptide before and after the freezing and thawing were detected by the following liquid chromatography method: Materials and equipment: high-performance liquid chromatographic instrument (Agilent 1200), ultrapure water (18.2 MΩ self-manufactured ultrapure water), acetonitrile (HPLC grade), and trifluoroacetic acid (HPLC grade); and reversed-phase chromatographic column: […] A sample to be tested was centrifuged at 10,000 rpm and 4° C. for 3 minutes, and a supernatant was taken and added into a liquid-phase sample injection bottle. […] A freeze-thaw yield was calculated by the following formula: freeze-thaw yield=concentration of polypeptide after the freezing and thawing/concentration of polypeptide before the freezing and thawing.

Row | Molecule | EC50 (human amylin receptor) [nM] | Dissolution property [1] | Freeze storage property [1] | Freeze storage yield [1] [%]
1 | CC[C@H](C)[C@H](NC(=O)[C@@H]1CCCN1C(=O)[C@H](CCCCNC(=O)CC[C@H](NC(=O)CCCCCCCCCCCCCCCCCCC(=O)O)C(=O)O)NC(=O)[C@H](CC(C)C)NC(=O)[C@H](CC(N)=O)NC(=O)[C@H](CC(N)=O)NC(=O)[C@H](CO)NC(=O)[C@H](CO)NC(=O)[C@H](Cc1c[nH]cn1)NC(=O)[C@H](CCCNC(=N)N)NC(=O)[C@H](CC(C)C)NC(=O)[C@H](Cc1ccccc1)NC(=O)[C@H](CCC(=O)O)NC(=O)[C@H](C)NC(=O)[C@H](CC(C)C)NC(=O)[C@H](CCCNC(=N)N)NC(=O)[C@H](CCC(N)=O)NC(=O)[C@@H](NC(=O)[C@H](C)NC(=O)[C@@H]1CSSC[C@H](NC(=O)[C@@H](N)CCCNC(=N)N)C(=O)N[C@@H](CC(N)=O)C(=O)N[C@@H]([C@@H](C)O)C(=O)N[C@@H](C)C(=O)N[C@@H]([C@@H](C)O)C(=O)N1)[C@@H](C)O)C(=O)N[C@@H](CC(C)C)C(=O)N1CCC[C@H]1C(=O)N1CCC[C@H]1C(=O)N[C@H](C(=O)N[C@@H](CC(N)=O)C(=O)N[C@H](C(=O)NCC(=O)N[C@@H](CO)C(=O)NCC(=O)N[C@H](C(=O)N1C[C@H](O)C[C@H]1C(N)=O)[C@@H](C)O)C(C)C)[C@@H](C)O [PD041] (H-RCNTATCATQRLAEFLRHSSNNLK([γGlu-C20 diacid])PILPPTNVGSGT[Hyp]-NH2; disulfide 2-7) | 0.259 |  |  | 
2 | CC[C@H](C)[C@H](NC(=O)[C@@H]1CCCN1C(=O)[C@H](CCCCNC(=O)CC[C@H](NC(=O)CCCCCCCCCCCCCCCCCCC(=O)O)C(=O)O)NC(=O)[C@H](CC(C)C)NC(=O)[C@H](CC(N)=O)NC(=O)[C@H](CC(N)=O)NC(=O)[C@H](CO)NC(=O)[C@H](CO)NC(=O)[C@H](Cc1c[nH]cn1)NC(=O)[C@H](CCCNC(=N)N)NC(=O)[C@H](CC(C)C)NC(=O)[C@H](Cc1ccccc1)NC(=O)[C@H](CCC(=O)O)NC(=O)[C@H](C)NC(=O)[C@H](CC(C)C)NC(=O)[C@H](CCCNC(=N)N)NC(=O)[C@H](CCC(N)=O)NC(=O)[C@@H](NC(=O)[C@H](C)NC(=O)[C@@H]1CSSC[C@H](N)C(=O)N[C@@H](CC(N)=O)C(=O)N[C@@H]([C@@H](C)O)C(=O)N[C@@H](C)C(=O)N[C@@H]([C@@H](C)O)C(=O)N1)[C@@H](C)O)C(=O)N[C@@H](CC(C)C)C(=O)N1CCC[C@H]1C(=O)N1CCC[C@H]1C(=O)N[C@H](C(=O)N[C@@H](CC(N)=O)C(=O)N[C@H](C(=O)NCC(=O)N[C@@H](CO)C(=O)N[C@@H](CC(N)=O)C(=O)N[C@H](C(=O)N1C[C@H](O)C[C@H]1C(N)=O)[C@@H](C)O)C(C)C)[C@@H](C)O [PD053] (H-CNTATCATQRLAEFLRHSSNNLK([γGlu-C20 diacid])PILPPTNVGSNT[Hyp]-NH2; disulfide 1-6) | 0.075 |  |  | 
3 | CC[C@H](C)[C@H](NC(=O)[C@@H]1CCCN1C(=O)[C@H](CCCCNC(=O)CC[C@H](NC(=O)CCCCCCCCCCCCCCCCCCC(=O)O)C(=O)O)NC(=O)[C@H](CC(C)C)NC(=O)[C@H](CC(N)=O)NC(=O)[C@H](CC(N)=O)NC(=O)[C@H](CO)NC(=O)[C@H](CO)NC(=O)[C@H](Cc1c[nH]cn1)NC(=O)[C@H](CCCNC(=N)N)NC(=O)[C@H](CC(C)C)NC(=O)[C@H](Cc1ccccc1)NC(=O)[C@H](CC(=O)O)NC(=O)[C@H](C)NC(=O)[C@H](CC(C)C)NC(=O)[C@H](CCCNC(=N)N)NC(=O)[C@H](CCC(N)=O)NC(=O)[C@@H](NC(=O)[C@H](C)NC(=O)[C@@H]1CSSC[C@H](N)C(=O)N[C@@H](CC(N)=O)C(=O)N[C@@H]([C@@H](C)O)C(=O)N[C@@H](C)C(=O)N[C@@H]([C@@H](C)O)C(=O)N1)[C@@H](C)O)C(=O)N[C@@H](CC(C)C)C(=O)N1CCC[C@H]1C(=O)N1CCC[C@H]1C(=O)N[C@H](C(=O)N[C@@H](CC(N)=O)C(=O)N[C@H](C(=O)NCC(=O)N[C@@H](CO)C(=O)N[C@@H](CC(N)=O)C(=O)N[C@H](C(=O)N1C[C@H](O)C[C@H]1C(N)=O)[C@@H](C)O)C(C)C)[C@@H](C)O [PD054] (H-CNTATCATQRLADFLRHSSNNLK([γGlu-C20 diacid])PILPPTNVGSNT[Hyp]-NH2; disulfide 1-6) | 0.049 |  |  | 
4 | PD137: KCNTATCATQRLADFLRHSSNNLGPILPPTNVGSNT-trans-Hyp-NH2; N-terminal, 1K-ϵ; γGlu + C14 diacid ({C14 diacid-γGlu}-K([γGlu-C14 diacid])CNTATCATQRLADFLRHSSNNLGPILPPTNVGSNT-{trans‑Hyp-NH2}; disulfide 2-7 (inferred)) |  | Clear | Clear | 102.20
5 | PD138: KCNTATCATQRLADFLRHSSNNLGPILPPTNVGSNT-trans-Hyp-NH2; N-terminal, 1K-ϵ; γGlu + C16 diacid ({C16 diacid-γGlu}-K([γGlu-C16 diacid])CNTATCATQRLADFLRHSSNNLGPILPPTNVGSNT-{trans‑Hyp-NH2}; disulfide 2-7 (inferred)) |  | Clear | Clear | 106.03
6 | PD139: KCNTATCATQRLADFLRHSSNNLGPILPPTNVGSNT-trans-Hyp-NH2; N-terminal, 1K-ϵ; γGlu + C18 diacid ({C18 diacid-γGlu}-K([γGlu-C18 diacid])CNTATCATQRLADFLRHSSNNLGPILPPTNVGSNT-{trans‑Hyp-NH2}; disulfide 2-7 (inferred)) |  | Clear | Clear | 104.78
7 | PD148: KCNTATCATQRLADFLRHSSNNLKPILPPTNVGSNT-trans-Hyp-NH2; N-terminal, 1K-ϵ; γGlu + C10 diacid ({HOOC(CH2)8CO-γGlu}-K([γGlu-HOOC(CH2)8CO])CNTATCATQRLADFLRHSSNNLKPILPPTNVGSNT-{trans‑Hyp-NH2}; disulfide 2-7 (inferred)) |  | Clear | Clear | 103.34
8 | PD149: KCNTATCATQRLADFLRHSSNNLKPILPPTNVGSNT-trans-Hyp-NH2; N-terminal, 1K-ϵ; γGlu + C12 diacid ({C12 diacid-γGlu}-K([γGlu-C12 diacid])CNTATCATQRLADFLRHSSNNLKPILPPTNVGSNT-{trans‑Hyp-NH2}; disulfide 2-7 (inferred)) |  | Clear | Clear | 99.99
9 | PD150: KCNTATCATQRLADFLRHSSNNLKPILPPTNVGSNT-trans-Hyp-NH2; N-terminal, 1K-ϵ; γGlu + C14 diacid ({C14 diacid-γGlu}-K([γGlu-C14 diacid])CNTATCATQRLADFLRHSSNNLKPILPPTNVGSNT-{trans‑Hyp-NH2}; disulfide 2-7 (inferred)) |  | Clear | Clear | 103.74
10 | PD151: KCNTATCATQRLADFLRHSSNNLKPILPPTNVGSNT-trans-Hyp-NH2; N-terminal, 1K-ϵ; γGlu + C16 diacid ({C16 diacid-γGlu}-K([γGlu-C16 diacid])CNTATCATQRLADFLRHSSNNLKPILPPTNVGSNT-{trans‑Hyp-NH2}; disulfide 2-7 (inferred)) |  | Clear | Clear | 101.88
11 | PD152: KCNTATCATQRLADFLRHSSNNLKPILPPTNVGSNT-trans-Hyp-NH2; N-terminal, 1K-ϵ; γGlu + C18 diacid ({C18 diacid-γGlu}-K([γGlu-C18 diacid])CNTATCATQRLADFLRHSSNNLKPILPPTNVGSNT-{trans‑Hyp-NH2}; disulfide 2-7 (inferred)) |  | Clear | Clear | 97.96
